Experimental data as given in paper PMC5966398, “Conserved RNA binding activity of a Yin-Yang 1 homologue in the ova of the purple sea urchin Strongylocentrotus purpuratus”.

Target: SpYY1 (recombinant) (Strongylocentrotus purpuratus, UniProt A0A7M7RHL1 1-400)
Test: EMSA; 250 nM protein, 10 nM probe; 50 mM NaCl, 50 mM Tris-HCl pH 7.5, 2 mM MgCl2, 1 mM DTT, 5% glycerol, room temperature 20 min; 10 nM probe; recombinant protein 0.5 uM (Methods) or 250 nM (Fig. 4 legend); lysate reactions with poly-dIdC (DNA) or yeast tRNA (RNA)
Settings: tags: His tag and EK site from pRSetB (text says C-terminal)

SpYY1 (recombinant), sequence (A0A7M7RHL1 entry or part of it): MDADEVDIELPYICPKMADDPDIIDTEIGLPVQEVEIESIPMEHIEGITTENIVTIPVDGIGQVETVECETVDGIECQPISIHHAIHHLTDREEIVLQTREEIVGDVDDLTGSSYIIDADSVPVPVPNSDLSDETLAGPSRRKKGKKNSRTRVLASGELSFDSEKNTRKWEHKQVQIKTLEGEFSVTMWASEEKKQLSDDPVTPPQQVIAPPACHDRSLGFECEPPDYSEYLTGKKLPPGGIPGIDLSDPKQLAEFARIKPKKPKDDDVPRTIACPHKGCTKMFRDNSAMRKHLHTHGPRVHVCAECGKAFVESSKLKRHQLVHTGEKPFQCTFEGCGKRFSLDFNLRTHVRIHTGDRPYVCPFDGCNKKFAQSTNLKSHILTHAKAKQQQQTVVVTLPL

Row | Binder | binding result (label: 5'-32P when probe, single strand) | binding result (label: 32P end-fill when probe)
1 | UUUUUUUUUUUUUUUUUUUU (ssRNA) [U(20) RNA] | binds | –
2 | YY1 consensus DNA element (YY1C) (dsDNA) DNA 1: CTAGGCGCTCCCCGGCCATCTTGGCGGCTGGT DNA 2: ACCAGCCGCCAAGATGGCCGGGGAGCGCCTAG | – | binds
